# Test results reported in patent US20200079833A1 (AstraZeneca / MedImmune, published 2020).
# Starred links: 1 amine or outer side, 2 acyl side, 3 side chain; linkers in the order of their positions; H or OH if unused. Non-standard residues stand in square brackets, D forms with d. Groups on a side chain read outwards from the residue. No end group written: not given here. *: point of attachment. γGlu = O=C(O)[C@H](CCC(=O)[*:2])N[*:1]; Palmitoyl = CCCCCCCCCCCCCCCC(=O)*; αMeF = C[C@](N)(Cc1ccccc1)C(=O)O; αMeK = C[C@](N)(CCCCN)C(=O)O; αMeS = C[C@](N)(CO)C(=O)O; Aib = CC(C)(N)C(=O)O
# Legend:
# Test in all cases: cell-based or functional assay
# GLP-1 receptor (GLP-1R) = GLP-1 receptor (GLP-1R) (human, UniProt P43220 24-463)
# glucagon receptor (GCGR) = glucagon receptor (GCGR) (human, UniProt P47871 26-477)
# Sequence of glucagon receptor (GCGR) (P47871 26-477): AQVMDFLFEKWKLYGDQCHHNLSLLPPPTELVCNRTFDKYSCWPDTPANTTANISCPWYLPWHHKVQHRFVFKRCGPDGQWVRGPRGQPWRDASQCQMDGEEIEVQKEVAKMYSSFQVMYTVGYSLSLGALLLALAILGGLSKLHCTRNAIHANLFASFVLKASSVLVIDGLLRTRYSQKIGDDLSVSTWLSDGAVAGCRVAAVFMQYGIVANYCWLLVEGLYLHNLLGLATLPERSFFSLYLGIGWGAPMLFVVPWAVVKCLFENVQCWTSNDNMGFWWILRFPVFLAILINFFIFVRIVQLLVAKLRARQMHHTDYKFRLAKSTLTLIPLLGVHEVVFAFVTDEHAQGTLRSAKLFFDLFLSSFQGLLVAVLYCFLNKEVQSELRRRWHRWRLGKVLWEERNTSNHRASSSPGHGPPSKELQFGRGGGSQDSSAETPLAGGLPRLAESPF
# [1] = molecular target: T1, glucose-dependent insulinotropic peptide (gastric inhibitory polypeptide) receptor (GIPR) (human, UniProt P48546 22-466)
# T1 sequence (looked up): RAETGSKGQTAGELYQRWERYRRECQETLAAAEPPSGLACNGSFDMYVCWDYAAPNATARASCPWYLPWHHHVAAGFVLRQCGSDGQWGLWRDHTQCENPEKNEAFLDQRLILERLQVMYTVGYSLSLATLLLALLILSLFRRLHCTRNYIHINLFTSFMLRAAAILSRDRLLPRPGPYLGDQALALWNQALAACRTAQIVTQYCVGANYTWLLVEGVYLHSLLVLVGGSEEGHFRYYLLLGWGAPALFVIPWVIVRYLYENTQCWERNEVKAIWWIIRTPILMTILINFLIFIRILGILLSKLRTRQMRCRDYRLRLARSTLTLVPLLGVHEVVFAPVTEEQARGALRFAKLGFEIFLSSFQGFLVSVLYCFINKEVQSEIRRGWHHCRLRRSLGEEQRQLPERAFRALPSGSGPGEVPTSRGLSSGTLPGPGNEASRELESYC
binder,measurement,setting,value
H[Aib]EGS[αMeF]K([γGlu-Palmitoyl])SDV[αMeS]S[αMeF]LEGEAA[αMeK]E[αMeF]IA[αMeF]VV[αMeK]GG-NH2 (N-terminus assumed; SMILES CCCCCCCCCCCCCCCC(=O)N[C@@H](CCC(=O)NCCCC[C@H](NC(=O)[C@](C)(Cc1ccccc1)NC(=O)[C@H](CO)NC(=O)CNC(=O)[C@H](CCC(=O)O)NC(=O)C(C)(C)NC(=O)[C@@H](N)Cc1c[nH]cn1)C(=O)N[C@@H](CO)C(=O)N[C@@H](CC(=O)O)C(=O)N[C@H](C(=O)N[C@@](C)(CO)C(=O)N[C@@H](CO)C(=O)N[C@@](C)(Cc1ccccc1)C(=O)N[C@@H](CC(C)C)C(=O)N[C@@H](CCC(=O)O)C(=O)NCC(=O)N[C@@H](CCC(=O)O)C(=O)N[C@@H](C)C(=O)N[C@@H](C)C(=O)N[C@@](C)(CCCCN)C(=O)N[C@@H](CCC(=O)O)C(=O)N[C@@](C)(Cc1ccccc1)C(=O)N[C@H](C(=O)N[C@@H](C)C(=O)N[C@@](C)(Cc1ccccc1)C(=O)N[C@H](C(=O)N[C@H](C(=O)N[C@@](C)(CCCCN)C(=O)NCC(=O)NCC(N)=O)C(C)C)C(C)C)[C@@H](C)CC)C(C)C)C(=O)O) [SEQ ID NO 93],cAMP Mean pM GLP-1R,GLP-1 receptor (GLP-1R),27600 pM
same,cAMP Primary assay EC50 GLP-1R n1,GLP-1 receptor (GLP-1R),28 nM
same,cAMP Primary assay EC50 GLP-1R n2,GLP-1 receptor (GLP-1R),28 nM
same,cAMP Primary assay EC50 Gluc-R,glucagon receptor (GCGR),28 nM
same,cAMP Primary assay EC50 Gluc-R (2nd),glucagon receptor (GCGR),28 nM
same,cAMP Primary assay EC50 GIP-R,[1],28 nM
same,cAMP Primary assay EC50 GIP-R (2nd),[1],28 nM
H[Aib]EGS[αMeF]TSDK([γGlu-Palmitoyl])[αMeS]S[αMeF]LEGEAA[αMeK]E[αMeF]IA[αMeF]VV[αMeK]GG-NH2 (N-terminus assumed; SMILES CCCCCCCCCCCCCCCC(=O)N[C@@H](CCC(=O)NCCCC[C@H](NC(=O)[C@H](CC(=O)O)NC(=O)[C@H](CO)NC(=O)[C@@H](NC(=O)[C@](C)(Cc1ccccc1)NC(=O)[C@H](CO)NC(=O)CNC(=O)[C@H](CCC(=O)O)NC(=O)C(C)(C)NC(=O)[C@@H](N)Cc1c[nH]cn1)[C@@H](C)O)C(=O)N[C@@](C)(CO)C(=O)N[C@@H](CO)C(=O)N[C@@](C)(Cc1ccccc1)C(=O)N[C@@H](CC(C)C)C(=O)N[C@@H](CCC(=O)O)C(=O)NCC(=O)N[C@@H](CCC(=O)O)C(=O)N[C@@H](C)C(=O)N[C@@H](C)C(=O)N[C@@](C)(CCCCN)C(=O)N[C@@H](CCC(=O)O)C(=O)N[C@@](C)(Cc1ccccc1)C(=O)N[C@H](C(=O)N[C@@H](C)C(=O)N[C@@](C)(Cc1ccccc1)C(=O)N[C@H](C(=O)N[C@H](C(=O)N[C@@](C)(CCCCN)C(=O)NCC(=O)NCC(N)=O)C(C)C)C(C)C)[C@@H](C)CC)C(=O)O) [SEQ ID NO 90],cAMP Mean pM GLP-1R,GLP-1 receptor (GLP-1R),0.7 pM
same,cAMP Primary assay EC50 GLP-1R n1,GLP-1 receptor (GLP-1R),0.00068 nM
same,cAMP Primary assay EC50 GLP-1R n2,GLP-1 receptor (GLP-1R),0.00079 nM
same,cAMP Primary assay EC50 Gluc-R,glucagon receptor (GCGR),28 nM
same,cAMP Primary assay EC50 Gluc-R (2nd),glucagon receptor (GCGR),28 nM
same,cAMP Primary assay EC50 GIP-R,[1],28 nM
same,cAMP Primary assay EC50 GIP-R (2nd),[1],28 nM
H[Aib]EGS[αMeF]TK([γGlu-Palmitoyl])DV[αMeS]S[αMeF]LEGEAA[αMeK]E[αMeF]IA[αMeF]VV[αMeK]GG-NH2 (N-terminus assumed; SMILES CCCCCCCCCCCCCCCC(=O)N[C@@H](CCC(=O)NCCCC[C@H](NC(=O)[C@@H](NC(=O)[C@](C)(Cc1ccccc1)NC(=O)[C@H](CO)NC(=O)CNC(=O)[C@H](CCC(=O)O)NC(=O)C(C)(C)NC(=O)[C@@H](N)Cc1c[nH]cn1)[C@@H](C)O)C(=O)N[C@@H](CC(=O)O)C(=O)N[C@H](C(=O)N[C@@](C)(CO)C(=O)N[C@@H](CO)C(=O)N[C@@](C)(Cc1ccccc1)C(=O)N[C@@H](CC(C)C)C(=O)N[C@@H](CCC(=O)O)C(=O)NCC(=O)N[C@@H](CCC(=O)O)C(=O)N[C@@H](C)C(=O)N[C@@H](C)C(=O)N[C@@](C)(CCCCN)C(=O)N[C@@H](CCC(=O)O)C(=O)N[C@@](C)(Cc1ccccc1)C(=O)N[C@H](C(=O)N[C@@H](C)C(=O)N[C@@](C)(Cc1ccccc1)C(=O)N[C@H](C(=O)N[C@H](C(=O)N[C@@](C)(CCCCN)C(=O)NCC(=O)NCC(N)=O)C(C)C)C(C)C)[C@@H](C)CC)C(C)C)C(=O)O) [SEQ ID NO 92],cAMP Mean pM GLP-1R,GLP-1 receptor (GLP-1R),423 pM
same,cAMP Primary assay EC50 GLP-1R n1,GLP-1 receptor (GLP-1R),0.45 nM
same,cAMP Primary assay EC50 GLP-1R n2,GLP-1 receptor (GLP-1R),0.39 nM
same,cAMP Primary assay EC50 Gluc-R,glucagon receptor (GCGR),28 nM
same,cAMP Primary assay EC50 Gluc-R (2nd),glucagon receptor (GCGR),28 nM
same,cAMP Primary assay EC50 GIP-R,[1],28 nM
same,cAMP Primary assay EC50 GIP-R (2nd),[1],28 nM
H[Aib]EGK([γGlu-Palmitoyl])[αMeF]TSDV[αMeS]S[αMeF]LEGEAA[αMeK]E[αMeF]IA[αMeF]VV[αMeK]GG-NH2 (N-terminus assumed; SMILES CCCCCCCCCCCCCCCC(=O)N[C@@H](CCC(=O)NCCCC[C@H](NC(=O)CNC(=O)[C@H](CCC(=O)O)NC(=O)C(C)(C)NC(=O)[C@@H](N)Cc1c[nH]cn1)C(=O)N[C@@](C)(Cc1ccccc1)C(=O)N[C@H](C(=O)N[C@@H](CO)C(=O)N[C@@H](CC(=O)O)C(=O)N[C@H](C(=O)N[C@@](C)(CO)C(=O)N[C@@H](CO)C(=O)N[C@@](C)(Cc1ccccc1)C(=O)N[C@@H](CC(C)C)C(=O)N[C@@H](CCC(=O)O)C(=O)NCC(=O)N[C@@H](CCC(=O)O)C(=O)N[C@@H](C)C(=O)N[C@@H](C)C(=O)N[C@@](C)(CCCCN)C(=O)N[C@@H](CCC(=O)O)C(=O)N[C@@](C)(Cc1ccccc1)C(=O)N[C@H](C(=O)N[C@@H](C)C(=O)N[C@@](C)(Cc1ccccc1)C(=O)N[C@H](C(=O)N[C@H](C(=O)N[C@@](C)(CCCCN)C(=O)NCC(=O)NCC(N)=O)C(C)C)C(C)C)[C@@H](C)CC)C(C)C)[C@@H](C)O)C(=O)O) [SEQ ID NO 95],cAMP Mean pM GLP-1R,GLP-1 receptor (GLP-1R),224 pM
same,cAMP Primary assay EC50 GLP-1R n1,GLP-1 receptor (GLP-1R),0.26 nM
same,cAMP Primary assay EC50 GLP-1R n2,GLP-1 receptor (GLP-1R),0.19 nM
same,cAMP Primary assay EC50 Gluc-R,glucagon receptor (GCGR),28 nM
same,cAMP Primary assay EC50 Gluc-R (2nd),glucagon receptor (GCGR),28 nM
same,cAMP Primary assay EC50 GIP-R,[1],28 nM
same,cAMP Primary assay EC50 GIP-R (2nd),[1],28 nM
H[Aib]EGS[αMeF]TSK([γGlu-Palmitoyl])V[αMeS]S[αMeF]LEGEAA[αMeK]E[αMeF]IA[αMeF]VV[αMeK]GG-NH2 (N-terminus assumed; SMILES CCCCCCCCCCCCCCCC(=O)N[C@@H](CCC(=O)NCCCC[C@H](NC(=O)[C@H](CO)NC(=O)[C@@H](NC(=O)[C@](C)(Cc1ccccc1)NC(=O)[C@H](CO)NC(=O)CNC(=O)[C@H](CCC(=O)O)NC(=O)C(C)(C)NC(=O)[C@@H](N)Cc1c[nH]cn1)[C@@H](C)O)C(=O)N[C@H](C(=O)N[C@@](C)(CO)C(=O)N[C@@H](CO)C(=O)N[C@@](C)(Cc1ccccc1)C(=O)N[C@@H](CC(C)C)C(=O)N[C@@H](CCC(=O)O)C(=O)NCC(=O)N[C@@H](CCC(=O)O)C(=O)N[C@@H](C)C(=O)N[C@@H](C)C(=O)N[C@@](C)(CCCCN)C(=O)N[C@@H](CCC(=O)O)C(=O)N[C@@](C)(Cc1ccccc1)C(=O)N[C@H](C(=O)N[C@@H](C)C(=O)N[C@@](C)(Cc1ccccc1)C(=O)N[C@H](C(=O)N[C@H](C(=O)N[C@@](C)(CCCCN)C(=O)NCC(=O)NCC(N)=O)C(C)C)C(C)C)[C@@H](C)CC)C(C)C)C(=O)O) [SEQ ID NO 91],cAMP Mean pM GLP-1R,GLP-1 receptor (GLP-1R),24 pM
same,cAMP Primary assay EC50 GLP-1R n1,GLP-1 receptor (GLP-1R),0.021 nM
same,cAMP Primary assay EC50 GLP-1R n2,GLP-1 receptor (GLP-1R),0.027 nM
same,cAMP Primary assay EC50 Gluc-R,glucagon receptor (GCGR),28 nM
same,cAMP Primary assay EC50 Gluc-R (2nd),glucagon receptor (GCGR),28 nM
same,cAMP Primary assay EC50 GIP-R,[1],28 nM
same,cAMP Primary assay EC50 GIP-R (2nd),[1],28 nM
H[Aib]EGSK([γGlu-Palmitoyl])TSDV[αMeS]S[αMeF]LEGEAA[αMeK]E[αMeF]IA[αMeF]VV[αMeK]GG-NH2 (N-terminus assumed; SMILES CCCCCCCCCCCCCCCC(=O)N[C@@H](CCC(=O)NCCCC[C@H](NC(=O)[C@H](CO)NC(=O)CNC(=O)[C@H](CCC(=O)O)NC(=O)C(C)(C)NC(=O)[C@@H](N)Cc1c[nH]cn1)C(=O)N[C@H](C(=O)N[C@@H](CO)C(=O)N[C@@H](CC(=O)O)C(=O)N[C@H](C(=O)N[C@@](C)(CO)C(=O)N[C@@H](CO)C(=O)N[C@@](C)(Cc1ccccc1)C(=O)N[C@@H](CC(C)C)C(=O)N[C@@H](CCC(=O)O)C(=O)NCC(=O)N[C@@H](CCC(=O)O)C(=O)N[C@@H](C)C(=O)N[C@@H](C)C(=O)N[C@@](C)(CCCCN)C(=O)N[C@@H](CCC(=O)O)C(=O)N[C@@](C)(Cc1ccccc1)C(=O)N[C@H](C(=O)N[C@@H](C)C(=O)N[C@@](C)(Cc1ccccc1)C(=O)N[C@H](C(=O)N[C@H](C(=O)N[C@@](C)(CCCCN)C(=O)NCC(=O)NCC(N)=O)C(C)C)C(C)C)[C@@H](C)CC)C(C)C)[C@@H](C)O)C(=O)O) [SEQ ID NO 94],cAMP Mean pM GLP-1R,GLP-1 receptor (GLP-1R),228 pM
same,cAMP Primary assay EC50 GLP-1R n1,GLP-1 receptor (GLP-1R),0.14 nM
same,cAMP Primary assay EC50 GLP-1R n2,GLP-1 receptor (GLP-1R),0.32 nM
same,cAMP Primary assay EC50 Gluc-R,glucagon receptor (GCGR),28 nM
same,cAMP Primary assay EC50 Gluc-R (2nd),glucagon receptor (GCGR),28 nM
same,cAMP Primary assay EC50 GIP-R,[1],28 nM
same,cAMP Primary assay EC50 GIP-R (2nd),[1],28 nM
